Data as given in paper PMC6497955, “Development and structural characterization of an engineered multi-copper oxidase reporter of protein–protein interactions” (The Journal of Biological Chemistry, 2019).
Where a chain is given by its changes, count along the chain named. Names may count otherwise.

Substrate: COc1cc(C=NN=Cc2cc(OC)c(O)c(OC)c2)cc(OC)c1O
Test: purified protein
Type: biochemical, Escherichia coli
Conditions: 50 mM acetate pH 5.2, 0.33 mM copper, room temperature
[1] = CueO-HA, HA epitope graft TSYPYDVPDYA (from primers), no antibody
[2] = CueO-12.1, graft PRFMDYWEGLN (from primers; residues 384–394 replaced)
[3] = CueO-PM2, graft TSFAEYWALLS (from primers), no MDM2
[4] = CueO-12.1CON, graft PRAMDYAEGAN (from primers)

B1: CueO (Escherichia coli K-12; G386S/G389Y/G391V/H387Y/H390D/H395A/M358I/M385T/M388P/M393D/N392P/N394Y) (protein)
chain: AERPTLPIPDLLTTDARNRIQLTIGAGQSTFGGKTATTWGYNGNLLGPAVKLQRGKAVTVDIYNQLTEETTLHWHGLEVPGEVDGGPQGIIPPGGKRSVTLNVDQPAATCWFHPHQHGKTGRQVAMGLAGLVVIEDDEILKLMLPKQWGIDDVPVIVQDKKFSADGQIDYQLDVMTAAVGWFGDTLLTNGAIYPQHAAPRGWLRLRLLNGCNARSLNFATSDNRPLYVIASDGGLLPEPVKVSELPVLMGERFEVLVEVNDNKPFDLVTLPVSQMGMAIAPFDKPHPVMRIQPIAISASGALPDTLSSLPALPSLEGLTVRKLQLSMDPILDMMGMQMLMEKYGDQAMAGMDHSQMTSYPYDVPDYAMNHGGKFDFHHANKINGQAFDMNKPMFAAAKGQYERWVISGVGDMMLHPFHIHGTQFRILSENGKPPAAHRAGWKDTVKVEGNVSEVLVKFNHDAPKEHAYMAHCHLLEHEDTGMMLGFTV
notes: C-terminal His6 tag, pET22b, full-length gene cloned, expressed in E. coli BL21(DE3); crystal models start at residue 29/30; given PDB entries are of the CueO-12.1 and CueO-PM2 variants
Km [1]: 286.06 ± 22.89 µM
kcat [1]: 1.49 ± 0.151 s⁻¹
kcat/Km [1]: 5170 M⁻¹ s⁻¹

B2: CueO (Escherichia coli K-12) (protein)
chain: AERPTLPIPDLLTTDARNRIQLTIGAGQSTFGGKTATTWGYNGNLLGPAVKLQRGKAVTVDIYNQLTEETTLHWHGLEVPGEVDGGPQGIIPPGGKRSVTLNVDQPAATCWFHPHQHGKTGRQVAMGLAGLVVIEDDEILKLMLPKQWGIDDVPVIVQDKKFSADGQIDYQLDVMTAAVGWFGDTLLTNGAIYPQHAAPRGWLRLRLLNGCNARSLNFATSDNRPLYVIASDGGLLPEPVKVSELPVLMGERFEVLVEVNDNKPFDLVTLPVSQMGMAIAPFDKPHPVMRIQPIAISASGALPDTLSSLPALPSLEGLTVRKLQLSMDPMLDMMGMQMLMEKYGDQAMAGMDHSQMMGHMGHGNMNHMNHGGKFDFHHANKINGQAFDMNKPMFAAAKGQYERWVISGVGDMMLHPFHIHGTQFRILSENGKPPAAHRAGWKDTVKVEGNVSEVLVKFNHDAPKEHAYMAHCHLLEHEDTGMMLGFTV
notes: as for B1
Km (CueO-WT (358 reverted to Met)): 293.18 ± 23.08 µM
kcat (CueO-WT (358 reverted to Met)): 2.52 ± 0.136 s⁻¹
kcat/Km (CueO-WT (358 reverted to Met)): 8670 M⁻¹ s⁻¹

B3: CueO (Escherichia coli K-12; G386R/G389D/G391W/H387F/H390Y/H395N/M358I/M385P/M393G/N392E/N394L) (protein)
chain: AERPTLPIPDLLTTDARNRIQLTIGAGQSTFGGKTATTWGYNGNLLGPAVKLQRGKAVTVDIYNQLTEETTLHWHGLEVPGEVDGGPQGIIPPGGKRSVTLNVDQPAATCWFHPHQHGKTGRQVAMGLAGLVVIEDDEILKLMLPKQWGIDDVPVIVQDKKFSADGQIDYQLDVMTAAVGWFGDTLLTNGAIYPQHAAPRGWLRLRLLNGCNARSLNFATSDNRPLYVIASDGGLLPEPVKVSELPVLMGERFEVLVEVNDNKPFDLVTLPVSQMGMAIAPFDKPHPVMRIQPIAISASGALPDTLSSLPALPSLEGLTVRKLQLSMDPILDMMGMQMLMEKYGDQAMAGMDHSQMPRFMDYWEGLNMNHGGKFDFHHANKINGQAFDMNKPMFAAAKGQYERWVISGVGDMMLHPFHIHGTQFRILSENGKPPAAHRAGWKDTVKVEGNVSEVLVKFNHDAPKEHAYMAHCHLLEHEDTGMMLGFTV
notes: as for B1
Km [2]: 290.65 ± 44.33 µM
kcat [2]: 1.03 ± 0.0613 s⁻¹
kcat/Km [2]: 3500 M⁻¹ s⁻¹

B4: CueO (Escherichia coli K-12; M358I) (protein)
chain: B2 chain with M330I
notes: as for B1
Km: 256.09 ± 9.59 µM
kcat: 2.24 ± 0.19 s⁻¹
kcat/Km: 8830 M⁻¹ s⁻¹

B5: CueO (Escherichia coli K-12; G386S/G389E/G391W/H387F/H390Y/H395S/M358I/M385T/M388A/M393L/N392A/N394L) (protein)
chain: B3 chain with P357T, R358S, M360A, D361E, E364A, G365L, N367S
notes: as for B1
Km [3]: 284.77 ± 25.50 µM
kcat [3]: 0.811 ± 0.0288 s⁻¹
kcat/Km [3]: 2830 M⁻¹ s⁻¹

B6: CueO (Escherichia coli K-12; G386R/G389D/G391A/H387A/H390Y/H395N/M358I/M385P/M393G/N392E/N394A) (protein)
chain: B3 chain with F359A, W363A, L366A
notes: as for B1
Km [4]: 234.51 ± 41.99 µM
kcat [4]: 1.61 ± 0.238 s⁻¹
kcat/Km [4]: 6830 M⁻¹ s⁻¹
